From patent US20090202543A1 (ONCOTHERAPY SCIENCE, published 2009)

Molecular target: T1, B7330N-myc (myc-tagged B7330N expressed from pcDNA3.1-B7330N-myc in COS-7 cells) (human, UniProt Q8NCL4 1-622)
T1 construct: Expressed by transfection in COS-7 cells and tested in cell lysates; also called GALNT6; not shown: myc-his tag from the pcDNA3.1-myc-his vector (Invitrogen)
T1 sequence: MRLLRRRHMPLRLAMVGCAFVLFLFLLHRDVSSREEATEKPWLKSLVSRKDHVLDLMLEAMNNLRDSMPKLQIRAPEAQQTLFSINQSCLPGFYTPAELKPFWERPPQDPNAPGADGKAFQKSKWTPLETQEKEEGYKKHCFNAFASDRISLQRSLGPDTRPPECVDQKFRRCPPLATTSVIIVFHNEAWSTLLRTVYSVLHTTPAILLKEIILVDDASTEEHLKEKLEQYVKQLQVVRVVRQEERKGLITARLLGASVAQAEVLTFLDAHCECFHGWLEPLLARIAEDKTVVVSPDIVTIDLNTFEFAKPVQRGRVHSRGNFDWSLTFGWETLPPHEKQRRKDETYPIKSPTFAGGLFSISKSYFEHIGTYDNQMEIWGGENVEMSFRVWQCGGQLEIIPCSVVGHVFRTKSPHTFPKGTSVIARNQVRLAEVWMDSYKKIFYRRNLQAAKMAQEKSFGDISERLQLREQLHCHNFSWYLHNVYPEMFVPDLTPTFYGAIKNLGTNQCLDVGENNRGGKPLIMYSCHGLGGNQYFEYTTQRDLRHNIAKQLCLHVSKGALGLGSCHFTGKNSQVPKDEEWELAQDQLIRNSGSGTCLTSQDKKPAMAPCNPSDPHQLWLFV
Experiment: co-immunoprecipitation from co-transfected COS-7 cells, anti-myc pull-down
Source text: To investigate that hypothesis, we designed two kinds of tagged-B7330N constructs to examine homo-oligomerization. pCAGGS-B7330N-HA and pcDNA3.1-B7330N-myc were co-transfected into COS-7 cells and co-immunoprecipitated using anti-HA or anti-myc antibody, respectively.

binding result: binds
B1: B7330N-HA (HA-tagged B7330N expressed from pCAGGS-B7330N-HA in COS-7 cells) (enzyme)
chain: T1 sequence
modifications: N-glycosylated at Asn-476
notes: Expressed by transfection in COS-7 cells and tested in cell lysates; also called GALNT6; UDP-N-acetyl-alpha-D-galactosamine: polypeptide N-acetylgalactosaminyltransferase 6; not shown: C-terminal HA tag from the pCAGGS-HA vector
